Laboratory results from article PMC12096946, “Structural analysis of genetic variants of the human tumor suppressor PALB2 coiled-coil domain” (Bioscience Reports, 2025).

Target: the molecule itself
Test: SEC; analytical size exclusion chromatography, Superdex75 column; 50 mM Na2HPO4, 150 mM NaCl, 5 mM DTT, pH 6.5; mass from molecular weight standards

B1: human PALB2 coiled-coil domain (PALB2cc, residues 6-42) (domain or fragment, UniProt Q86YC2 6-42, looked up)
chain: GKPLSCEEKEKLKEKLAFLKREYSKTLARLQRAQRAE
notes: PALB2 (partner and localizer of BRCA2), human, N-terminal coiled-coil domain, residues 6-42 of the 1186-amino-acid protein; A methionine was introduced before the domain for CNBr cleavage of the His-GB1 tag; The NMR sample was uniformly 13C,15N labelled; The methods of the CD experiments say that PALB2cc peptides were synthesized; also called wt-PALB2cc; source: E. coli BL21-DE3, purified …
Question: B1 was tested. Which “stoichiometry N” value did it give?
Answer: 2

B2: S10E, S29E-PALB2cc (peptide, UniProt Q86YC2 6-42, looked up)
chain: GKPLECEEKEKLKEKLAFLKREYEKTLARLQRAQRAE
notes: also called S10E, S29E phosphomimetic PALB2 coiled-coil domain; source: synthetic peptide (Lifetein technologies)
Question: Does B2 bind?
Answer: binds
